According to the supplement of paper PMC9112550, “Optimization of the antimicrobial peptide Bac7 by deep mutational scanning” (BMC Biology, 2022):

Test system: Escherichia coli TOP10
Assay: shrunken log2 fold change of peptide-encoding DNA abundance (4.5 h post-induction vs induction); higher = less antimicrobial activity (less host growth inhibition)
Conditions: time post-induction: 4.5 h; library: site-saturation at positions 5, 18, 19, 20
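Also: peptides expressed intracellularly from a pBAD plasmid library in pooled LB shake-flask culture, induced with 0.3% L-arabinose, DNA abundance read by NGS, three biological replicates, DESeq2 with apeglm shrinkage.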

First: RRIRPRPPRLPRPRPRPRNWPRP
Second: RRIRPRPPRLPRPRPRPRPMPRP
The “shrunken log2 fold change” value of the first is lower: 0.195 for the first, 0.513 for the second.

RRIRPRPPRLPRPRPRPRQHPRP and RRIRPRPPRLPRPRPRPRRMPRP are within 0.2 log units of each other in “shrunken log2 fold change” value: 0.182 for the first, 0.297 for the second.

Going from RRIRPRPPRLPRPRPRPRSCPRP to RRIRPRPPRLPRPRPRPRSDPRP, the “shrunken log2 fold change” value falls from 0.395 to 0.179.

First: RRIRPRPPRLPRPRPRPRTGPRP
Second: RRIRPRPPRLPRPRPRPRVCPRP
The “shrunken log2 fold change” value of the first is higher: 1.03 for the first, 0.298 for the second.

First: RRIRPRPPRLPRPRPRPRWSPRP
Second: RRIRPRPPRLPRPRPRPRYCPRP
The “shrunken log2 fold change” value of the first is higher: 0.108 for the first, -0.191 for the second.

RRIRPRPPRLPRPRPRPRYFPRP and RRIRPRPPRLPRPRPRPSAGPRP are within 0.2 log units of each other in “shrunken log2 fold change” value: 0.0508 for the first, 0.243 for the second.

First: RRIRPRPPRLPRPRPRPSATPRP
Second: RRIRPRPPRLPRPRPRPSCLPRP
The “shrunken log2 fold change” value of the first is higher: 0.195 for the first, -0.317 for the second.

Compared with RRIRPRPPRLPRPRPRPSCPPRP, RRIRPRPPRLPRPRPRPSCQPRP is lower in “shrunken log2 fold change” value: -0.123 for the first, -0.733 for the second.

RRIRPRPPRLPRPRPRPSDAPRP and RRIRPRPPRLPRPRPRPSDEPRP are within 0.2 log units of each other in “shrunken log2 fold change” value: -0.0621 for the first, -0.244 for the second.

Compared with RRIRPRPPRLPRPRPRPSDTPRP, RRIRPRPPRLPRPRPRPSEWPRP is higher in “shrunken log2 fold change” value: -0.29 for the first, 0.0522 for the second.

First: RRIRPRPPRLPRPRPRPSGNPRP
Second: RRIRPRPPRLPRPRPRPSHNPRP
The “shrunken log2 fold change” value of the first is higher: -0.273 for the first, -0.645 for the second.

Going from RRIRPRPPRLPRPRPRPSHQPRP to RRIRPRPPRLPRPRPRPSHYPRP, the “shrunken log2 fold change” value falls from 0.189 to -0.479.

Compared with RRIRPRPPRLPRPRPRPSIHPRP, RRIRPRPPRLPRPRPRPSISPRP is higher in “shrunken log2 fold change” value: -0.974 for the first, -0.37 for the second.

Compared with RRIRPRPPRLPRPRPRPSKKPRP, RRIRPRPPRLPRPRPRPSMDPRP is lower in “shrunken log2 fold change” value: -0.108 for the first, -0.448 for the second.

Compared with RRIRPRPPRLPRPRPRPSMNPRP, RRIRPRPPRLPRPRPRPSPSPRP is higher in “shrunken log2 fold change” value: -0.522 for the first, 0.132 for the second.

Going from RRIRPRPPRLPRPRPRPSQIPRP to RRIRPRPPRLPRPRPRPSQRPRP, the “shrunken log2 fold change” value rises from -0.112 to 0.229.

Compared with RRIRPRPPRLPRPRPRPSSLPRP, RRIRPRPPRLPRPRPRPSVHPRP is lower in “shrunken log2 fold change” value: 0.0404 for the first, -0.289 for the second.

RRIRPRPPRLPRPRPRPSWCPRP and RRIRPRPPRLPRPRPRPSWKPRP are within 0.2 log units of each other in “shrunken log2 fold change” value: 0.108 for the first, 0.105 for the second.

Compared with RRIRPRPPRLPRPRPRPSWVPRP, RRIRPRPPRLPRPRPRPTAQPRP is higher in “shrunken log2 fold change” value: 0.0466 for the first, 0.357 for the second.

Going from RRIRPRPPRLPRPRPRPTASPRP to RRIRPRPPRLPRPRPRPTDLPRP, the “shrunken log2 fold change” value falls from 0.259 to -0.0166.

Going from RRIRPRPPRLPRPRPRPTDVPRP to RRIRPRPPRLPRPRPRPTELPRP, the “shrunken log2 fold change” value falls from 0.35 to -0.126.

First: RRIRPRPPRLPRPRPRPTENPRP
Second: RRIRPRPPRLPRPRPRPTFNPRP
The “shrunken log2 fold change” value of the first is higher: 0.138 for the first, -0.155 for the second.

RRIRPRPPRLPRPRPRPTFRPRP and RRIRPRPPRLPRPRPRPTGCPRP are within 0.2 log units of each other in “shrunken log2 fold change” value: 0.0885 for the first, 0.0367 for the second.

RRIRPRPPRLPRPRPRPTGPPRP and RRIRPRPPRLPRPRPRPTGVPRP are within 0.2 log units of each other in “shrunken log2 fold change” value: 0.212 for the first, 0.0313 for the second.

RRIRPRPPRLPRPRPRPTHKPRP and RRIRPRPPRLPRPRPRPTHNPRP are within 0.2 log units of each other in “shrunken log2 fold change” value: 0.283 for the first, 0.199 for the second.

RRIRPRPPRLPRPRPRPTIDPRP and RRIRPRPPRLPRPRPRPTIKPRP are within 0.2 log units of each other in “shrunken log2 fold change” value: -0.454 for the first, -0.313 for the second.

Compared with RRIRPRPPRLPRPRPRPTIVPRP, RRIRPRPPRLPRPRPRPTKAPRP is lower in “shrunken log2 fold change” value: 0.121 for the first, -0.191 for the second.

Going from RRIRPRPPRLPRPRPRPTKYPRP to RRIRPRPPRLPRPRPRPTLNPRP, the “shrunken log2 fold change” value rises from -0.344 to 0.0863.

RRIRPRPPRLPRPRPRPTMNPRP and RRIRPRPPRLPRPRPRPTYFPRP are within 0.2 log units of each other in “shrunken log2 fold change” value: -0.0529 for the first, -0.179 for the second.

Compared with RRIRPRPPRLPRPRPRPVAEPRP, RRIRPRPPRLPRPRPRPVCLPRP is lower in “shrunken log2 fold change” value: 0.394 for the first, 0.081 for the second.

RRIRPRPPRLPRPRPRPVDKPRP and RRIRPRPPRLPRPRPRPVFCPRP are within 0.2 log units of each other in “shrunken log2 fold change” value: -0.153 for the first, -0.113 for the second.

Going from RRIRPRPPRLPRPRPRPVFKPRP to RRIRPRPPRLPRPRPRPVHSPRP, the “shrunken log2 fold change” value rises from -0.189 to 0.127.

Going from RRIRPRPPRLPRPRPRPVINPRP to RRIRPRPPRLPRPRPRPVLPPRP, the “shrunken log2 fold change” value rises from -0.626 to 0.11.

RRIRPRPPRLPRPRPRPVMPPRP and RRIRPRPPRLPRPRPRPVRHPRP are within 0.2 log units of each other in “shrunken log2 fold change” value: 0.188 for the first, 0.119 for the second.

RRIRPRPPRLPRPRPRPVRYPRP and RRIRPRPPRLPRPRPRPVSHPRP are within 0.2 log units of each other in “shrunken log2 fold change” value: 0.346 for the first, 0.208 for the second.

Compared with RRIRPRPPRLPRPRPRPVSMPRP, RRIRPRPPRLPRPRPRPVTFPRP is lower in “shrunken log2 fold change” value: 1.41 for the first, -0.186 for the second.

First: RRIRPRPPRLPRPRPRPVTQPRP
Second: RRIRPRPPRLPRPRPRPVTWPRP
The “shrunken log2 fold change” value of the first is higher: 0.2 for the first, -0.0661 for the second.

RRIRPRPPRLPRPRPRPVVIPRP was tested, and the “shrunken log2 fold change” value was -0.191.
